Values quoted from earlier work, collected in publication PMC4584479.
Read-outs that look alike come from different tables or passages of the source.

Tests used:
[1] = molecular target: IL-15Rβ/γc (Homo sapiens) (UniProt P14784)
[2] = molecular target: IL-15Rβ/γc (Homo sapiens) (UniProt P14784); remark: listed apart in the source

Chain of UniProt P14784 (P14784 27-240, chain 1 of 2): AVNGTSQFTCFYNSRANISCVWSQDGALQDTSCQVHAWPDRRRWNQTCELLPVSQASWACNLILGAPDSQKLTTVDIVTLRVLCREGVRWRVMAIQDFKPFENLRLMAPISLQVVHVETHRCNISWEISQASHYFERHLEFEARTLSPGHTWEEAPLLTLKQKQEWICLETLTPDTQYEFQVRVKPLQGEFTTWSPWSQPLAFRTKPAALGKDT
Chain of UniProt P14784 (P31785 23-262, chain 2 of 2, further chain): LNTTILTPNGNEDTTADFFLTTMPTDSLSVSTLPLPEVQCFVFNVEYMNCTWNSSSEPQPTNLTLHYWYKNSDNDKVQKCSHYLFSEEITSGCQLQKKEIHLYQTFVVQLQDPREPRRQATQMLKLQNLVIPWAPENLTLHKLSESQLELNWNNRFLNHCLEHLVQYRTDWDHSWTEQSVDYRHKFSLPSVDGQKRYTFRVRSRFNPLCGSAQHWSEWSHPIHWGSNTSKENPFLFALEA

| Kd [1] [nM] | Kd [2] [nM] | Substance |
| --- | --- | --- |
| 13.5 |  | IL-15 (from UniProt P40933) |
|  | 0.78 | IL-15/IL-15Rα-sushi fusion protein (IL-15 hyperagonist) sushi domain of IL-15Rα fused to IL-15 (from UniProt P40933) |
